The target in assay [1] is T1, human DR3-Fc fusion protein (human, UniProt Q93038 25-199).
T1 construct: also called hDR3-Fc; not shown: Fc portion
T1 sequence: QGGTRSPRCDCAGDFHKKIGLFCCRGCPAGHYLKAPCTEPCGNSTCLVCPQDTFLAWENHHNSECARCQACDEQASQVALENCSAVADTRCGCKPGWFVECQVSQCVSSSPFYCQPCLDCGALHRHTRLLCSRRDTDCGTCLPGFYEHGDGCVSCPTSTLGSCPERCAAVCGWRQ
Put plainly: BIAcore SPR; human DR3-Fc amine-coupled to CM5 chip, Fab in flow; 1:1 model; average of n=2. The method, then:
(§1) Briefly, target proteins are covalently immoblilzed to the BIAcore CM5 sensor chip (Cat #BR-1000-14 (Biacore Life Sciences, Piscataway, N.J.)) via amine groups using N-ethyl-N′-(dimethylaminopropyl) carbodilimide/N-hydroxysuccinimide chemistry. Empty flow cells can be used as controls negative for target binding and for background subtraction. Six different concentrations of antibody molecules (range 0 to 50 nM) are flowed over the polypeptide-derivatized flow cells at 15 μL1/min for a total volume of 50 μl. The amount of bound protein is determined during washing of the flow cell with HBS buffer (10 mM HEPES [pH 7.4], 150 mM NaCl, 3.4 mM EDTA, and 0.005% Surfactant P20). The flow cell surface is regenerated by displacing bound protein by washing with 20 μl of 10 mM glycine-HCL (pH 2.3). For kinetic analysis, the on and off rates are determined using the kinetic evaluation program in BIAevaluation 3 software using a 1:1 binding model and the global analysis method.
(§2) In order to confirm that the humanized variant antibodies were capable of binding to the extracellular domain of DR3, the Kd values of eight humanized Fab variants were determined by BIAcore assay. In this experiment, a human DR3-Fc fusion protein was covalently immoblilzed to the BIAcore CM5 sensor chip. Empty flow cells that were negative for anti-DR3-Fab binding were used for background subtraction.

Assay [2] addresses T1, human DR3-Fc fusion protein. Briefly: BIAcore SPR; human DR3-Fc amine-coupled to CM5 chip, Fab in flow; ratio of average Kd. The procedure: as §1, §2
Assay [3] deals with T2, human DR3 receptor expressed on the cell surface (human, UniProt Q93038 25-417).
T2 construct: also called hDR3; TNFRSF25
T2 sequence: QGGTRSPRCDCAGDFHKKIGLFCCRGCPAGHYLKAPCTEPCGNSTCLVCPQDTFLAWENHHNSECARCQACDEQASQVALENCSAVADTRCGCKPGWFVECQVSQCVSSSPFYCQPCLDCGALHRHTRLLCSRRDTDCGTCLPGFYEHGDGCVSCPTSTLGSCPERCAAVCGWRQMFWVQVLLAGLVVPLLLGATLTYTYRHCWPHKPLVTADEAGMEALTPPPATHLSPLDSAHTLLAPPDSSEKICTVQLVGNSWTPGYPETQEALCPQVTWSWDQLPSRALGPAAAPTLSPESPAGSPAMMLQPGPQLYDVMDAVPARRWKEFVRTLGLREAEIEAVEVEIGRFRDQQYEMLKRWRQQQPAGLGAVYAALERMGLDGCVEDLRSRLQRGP
Put plainly: Flow cytometry on HEK293F cells transiently expressing human DR3. 1 ug/mL human TL1A, detected with anti-TL1A-biotin polyclonal antibody and streptavidin-PE. No competitor. The method, then: FIG. 4. Flow cytometry results of 11H08 binding to hDR3-expressing HEK293F cells. HEK293F cells transiently expressing human DR3 were used to test the ability of the whole 11H08 immunoglobulin molecule to inhibit human TL1A binding to DR3 (See, Example 2). HEK293F cells were incubated with 1 μg/mL of human TL1A in the presence of either an unrelated antibody (mIgG1) as an isotype control (known not to bind TL1A or DR3) or 11H08. […] The upper panels show binding of labeled TL1A either by itself or in the presence of an unrelated antibody (mIgG1).
The anti-DR3 monoclonal antibody 11H08 was assayed for its ability to inhibit human TL1A binding to human DR3 using techniques known to those skilled in the art. Briefly, HEK293F cells transiently expressing human DR3 were incubated with 1 μg/mL of human TL1A in the presence of either an unrelated antibody (mIgG1) as an isotype control that was known not to bind TL1A or DR3, or an anti-DR3 monoclonal antibody (11H08), for 20 minutes at room temperature. Binding was detected using an anti-TL1A-biotin polyclonal antibody followed by Streptavidin PE. The ability of the anti-DR3 monoclonal antibody to inhibit binding of TL1A to DR3 was measured by flow cytometry.

In assay [4] the target is T1, human DR3-Fc fusion protein. Put plainly: BIAcore SPR; human DR3-Fc amine-coupled to CM5 chip, Fab-HSA in flow; 1:1 model; average of n=2. The method, then: as §1
(§3) Additionally, H1L2-Fab and H5L2-Fab were fused to human serum albumin (See, Example 6) and similarly tested. The Kd values of H0L0-Fab-HSA, H1L2-Fab-HSA, and H5L2-Fab-HSA were determined by BIAcore analysis as described above.

For assay [5] the target is unchanged. Put plainly: BIAcore SPR; human DR3-Fc amine-coupled to CM5 chip, Fab-HSA in flow; ratio of average Kd. The procedure: as §1, §3

B1: H1.1L4-Fab (Fab, V domains shown)
VH: EVQLVESGGGLVKPGGSLRLSCAASGFTFTNYAMSWVRQAPGQRLEWVSTITSGGSYIYYLDSVKGRFTISRDNAKSTLYLQMNSLRAEDTAVYYCARRKDGNYYYAMDYWGQGTTVTVSS
VL: DIVLTQTPLSLSVTPGQPASISCRASESVDSYGNSFIHWYQQKPGQPPKLLIYRASNLESGIPARFSGSGSRTDFTLKISRVEAEDVGVYYCQQSYEDPWTFGGGTKLEIKR
B1 displayed an equilibrium dissociation constant (Kd) in assay [1] of 1.29 nM. Besides, the “Ratio of binding relative to H0L0-Fab” value in assay [2] turned out to be 0.94.

B2: H5.3L4-Fab (Fab, V domains shown)
VH: EVMLLQSGAEVKKPGASVKVSCKASGFTFTNYAMSWVRQAPGQRLEWVATITSGGSYIYYLDSVKGRFTISRDNAKSTLHLQMNSLRAEDTAVYYCARRKDGNYYYAMDYWGQGTTVTVSS
VL: DIVLTQTPLSLSVTPGQPASISCRASESVDSYGNSFIHWYQQKPGQPPKLLIYRASNLESGIPARFSGSGSRTDFTLKISRVEAEDVGVYYCQQSYEDPWTFGGGTKLEIKR
In assay [1], B2 showed an equilibrium dissociation constant (Kd) of 1.76 nM. Moreover, in assay [2], the “Ratio of binding relative to H0L0-Fab” value is 1.28.

B3: H1.1L1-Fab (Fab, V domains shown)
VH: EVQLVESGGGLVKPGGSLRLSCAASGFTFTNYAMSWVRQAPGQRLEWVSTITSGGSYIYYLDSVKGRFTISRDNAKSTLYLQMNSLRAEDTAVYYCARRKDGNYYYAMDYWGQGTTVTVSS
VL: DIVLTQSPATLSLSPGERATLSCRASESVDSYGNSFIHWYQQKPGQPPKLLIYRASNLESGIPARFSGSGSRTDFTLTISSLEPEDFAVYYCQQSYEDPWTFGGGTKLEIKR
B3: in assay [1], binding was characterised by a dissociation constant (Kd) of 1.46 nM. The “Ratio of binding relative to H0L0-Fab” value in assay [2] was 1.06.

B4: H1.1L2-Fab (Fab, V domains shown)
VH: EVQLVESGGGLVKPGGSLRLSCAASGFTFTNYAMSWVRQAPGQRLEWVSTITSGGSYIYYLDSVKGRFTISRDNAKSTLYLQMNSLRAEDTAVYYCARRKDGNYYYAMDYWGQGTTVTVSS
VL: DIVLTQSPSSLSASVGDRVTITCRASESVDSYGNSFIHWYQQKPGQPPKLLIYRASNLESGIPARFSGSGSRTDFTLTISSLQPEDFATYYCQQSYEDPWTFGGGTKLEIKR
In assay [1], B4 came in with a dissociation constant Kd of 1.17 nM. In addition, the “Ratio of binding relative to H0L0-Fab” value in assay [2] was found to be 0.85.

B5: human TL1A (ligand, UniProt O95150 72-251, looked up)
chain: LKGQEFAPSHQQVYAPLRADGDKPRAHLTVVRQTPTQHFKNQFPALHWEHELGLAFTKNRMNYTNKFLLIPESGDYFIYSQVTFRGMTSECSEIRQAGRPNKPDSITVVITKVTDSYPEPTQLLMGTKSVCEVGSNWFQPIYLGAMFSLQEGDKLMVNVSDISLVDYTKEDKTFFGAFLL
notes: also called hTL1A; TNFSF15
Consider B5, for which the binding result in assay [3] is recorded as “binds”.

B6: H0L0-Fab (Fab, V domains shown)
VH: EVMLVESGGGLVKPGGSLKLSCAASGFTFTNYAMSWVRQTPEKRLEWVATITSGGSYIYYLDSVKGRFTISRDNAKSTLYLQMSSLRSEDTAIYNCARRKDGNYYYAMDYWGQGTSVTVSS
VL: DIVLTQSPASLAVSLGQRATISCRASESVDSYGNSFIHWYQQKAGQPPKLLIYRASNLESGIPARFSGSGSRTDFTLTINPVEADDVATYYCQQSYEDPWTFGGGTKLEIKR
notes: also called 11H08-Fab; parental anti-DR3 molecule
Molecule B6 yielded a dissociation constant (Kd) in assay [1] of 1.37 nM. The “Ratio of binding relative to H0L0-Fab” value in assay [2] was 1.

B7: H0.1L0-Fab (Fab, V domains shown)
VH: EVMLVESGGGLVKPGGSLKLSCAASGFTFTNYAMSWVRQTPEKRLEWVATITSGGSYIYYLDSVKGRFTISRDNAKSTLYLQMSSLRSEDTAIYYCARRKDGNYYYAMDYWGQGTSVTVSS
VL: DIVLTQSPASLAVSLGQRATISCRASESVDSYGNSFIHWYQQKAGQPPKLLIYRASNLESGIPARFSGSGSRTDFTLTINPVEADDVATYYCQQSYEDPWTFGGGTKLEIKR
Turning to B7, the Kd in assay [1] amounted to 1.5 nM. In assay [2], the “Ratio of binding relative to H0L0-Fab” value was determined as 1.09.

B8: H4.2L2-Fab (Fab, V domains shown)
VH: QVQLVQSGSELKKPGASVKVSCKASGFTFTNYAMSWVRQAPGKRLEWVATITSGGSYIYYLDSVKGRFTISRENAKSTLYLQMNSLRTEDTALYYCARRKDGNYYYAMDYWGQGTTVTVSS
VL: DIVLTQSPSSLSASVGDRVTITCRASESVDSYGNSFIHWYQQKPGQPPKLLIYRASNLESGIPARFSGSGSRTDFTLTISSLQPEDFATYYCQQSYEDPWTFGGGTKLEIKR
In assay [1], B8 came in with a dissociation constant (Kd) of 2.01 nM. The “Ratio of binding relative to H0L0-Fab” value in assay [2] worked out at 1.46.

B9: H5.3L2-Fab (Fab, V domains shown)
VH: EVMLLQSGAEVKKPGASVKVSCKASGFTFTNYAMSWVRQAPGQRLEWVATITSGGSYIYYLDSVKGRFTISRDNAKSTLHLQMNSLRAEDTAVYYCARRKDGNYYYAMDYWGQGTTVTVSS
VL: DIVLTQSPSSLSASVGDRVTITCRASESVDSYGNSFIHWYQQKPGQPPKLLIYRASNLESGIPARFSGSGSRTDFTLTISSLQPEDFATYYCQQSYEDPWTFGGGTKLEIKR
With B9, the dissociation constant (Kd) in assay [1] came to 1.67 nM. The “Ratio of binding relative to H0L0-Fab” value in assay [2] came to 1.22.

B10: H1L2-Fab-HSA (Fab)
heavy: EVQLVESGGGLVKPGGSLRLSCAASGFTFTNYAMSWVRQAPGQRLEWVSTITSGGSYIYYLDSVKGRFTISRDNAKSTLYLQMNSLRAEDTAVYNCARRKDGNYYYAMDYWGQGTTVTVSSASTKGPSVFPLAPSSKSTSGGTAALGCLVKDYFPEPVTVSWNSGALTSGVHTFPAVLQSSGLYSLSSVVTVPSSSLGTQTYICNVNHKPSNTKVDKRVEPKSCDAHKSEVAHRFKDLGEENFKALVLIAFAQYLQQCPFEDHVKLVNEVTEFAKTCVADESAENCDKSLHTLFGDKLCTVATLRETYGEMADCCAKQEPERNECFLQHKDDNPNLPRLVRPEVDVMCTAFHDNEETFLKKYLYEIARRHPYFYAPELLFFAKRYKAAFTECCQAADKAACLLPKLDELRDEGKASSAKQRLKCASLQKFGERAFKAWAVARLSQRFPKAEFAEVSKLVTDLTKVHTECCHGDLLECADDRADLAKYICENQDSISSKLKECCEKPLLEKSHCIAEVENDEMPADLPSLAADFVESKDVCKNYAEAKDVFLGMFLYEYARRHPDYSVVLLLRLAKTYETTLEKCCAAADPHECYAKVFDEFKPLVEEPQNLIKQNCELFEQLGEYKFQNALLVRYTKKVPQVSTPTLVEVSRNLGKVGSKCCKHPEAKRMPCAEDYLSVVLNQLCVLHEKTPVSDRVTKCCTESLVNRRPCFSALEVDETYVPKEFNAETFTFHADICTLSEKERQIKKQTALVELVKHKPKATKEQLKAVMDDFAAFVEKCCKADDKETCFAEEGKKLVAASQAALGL
light: DIVLTQSPSSLSASVGDRVTITCRASESVDSYGNSFIHWYQQKPGQPPKLLIYRASNLESGIPARFSGSGSRTDFTLTISSLQPEDFATYYCQQSYEDPWTFGGGTKLEIKRTVAAPSVFIFPPSDEQLKSGTASVVCLLNNFYPREAKVQWKVDNALQSGNSQESVTEQDSKDSTYSLSSTLTLSKADYEKHKVYACEVTHQGLSSPVTKSFNRGEC
notes: also called AB13350-C1
In turn, B10 showed a dissociation constant (Kd) in assay [4] of 3.06 nM. Besides, in assay [5], the “Ratio of binding relative to H0L0-Fab” value came to 0.6.

B11: H5L2-Fab-HSA (Fab)
heavy: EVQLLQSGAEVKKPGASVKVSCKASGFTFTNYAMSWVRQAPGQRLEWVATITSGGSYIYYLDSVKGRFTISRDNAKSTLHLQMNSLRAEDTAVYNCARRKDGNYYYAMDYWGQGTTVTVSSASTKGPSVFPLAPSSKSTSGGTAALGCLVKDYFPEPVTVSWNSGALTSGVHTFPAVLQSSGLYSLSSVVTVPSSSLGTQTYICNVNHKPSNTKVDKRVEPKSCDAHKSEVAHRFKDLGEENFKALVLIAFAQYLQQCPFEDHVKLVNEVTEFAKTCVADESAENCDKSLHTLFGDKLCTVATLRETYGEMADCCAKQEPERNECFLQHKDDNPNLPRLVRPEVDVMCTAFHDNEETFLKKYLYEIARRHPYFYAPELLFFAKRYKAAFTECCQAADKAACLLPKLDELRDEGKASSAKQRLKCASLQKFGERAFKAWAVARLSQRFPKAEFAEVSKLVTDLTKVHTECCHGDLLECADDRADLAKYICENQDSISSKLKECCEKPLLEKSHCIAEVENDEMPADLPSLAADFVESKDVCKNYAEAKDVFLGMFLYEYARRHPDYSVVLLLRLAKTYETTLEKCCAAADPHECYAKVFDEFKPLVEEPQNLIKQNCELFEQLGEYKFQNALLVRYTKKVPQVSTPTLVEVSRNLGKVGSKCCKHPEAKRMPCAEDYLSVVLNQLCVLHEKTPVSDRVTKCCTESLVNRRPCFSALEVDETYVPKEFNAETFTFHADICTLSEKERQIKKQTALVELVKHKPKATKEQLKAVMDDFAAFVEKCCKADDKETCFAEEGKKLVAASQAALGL
light: DIVLTQSPSSLSASVGDRVTITCRASESVDSYGNSFIHWYQQKPGQPPKLLIYRASNLESGIPARFSGSGSRTDFTLTISSLQPEDFATYYCQQSYEDPWTFGGGTKLEIKRTVAAPSVFIFPPSDEQLKSGTASVVCLLNNFYPREAKVQWKVDNALQSGNSQESVTEQDSKDSTYSLSSTLTLSKADYEKHKVYACEVTHQGLSSPVTKSFNRGEC
notes: also called AB13351-C1
In assay [4], B11 yielded an equilibrium dissociation constant (Kd) of 7.52 nM. In addition, the “Ratio of binding relative to H0L0-Fab” value in assay [5] was 1.4.
